Measurements from publication PMC3097136.

T1: COUP-TFII (Nr2f2) (Mus musculus, UniProt P43135 1-414)
T1 sequence: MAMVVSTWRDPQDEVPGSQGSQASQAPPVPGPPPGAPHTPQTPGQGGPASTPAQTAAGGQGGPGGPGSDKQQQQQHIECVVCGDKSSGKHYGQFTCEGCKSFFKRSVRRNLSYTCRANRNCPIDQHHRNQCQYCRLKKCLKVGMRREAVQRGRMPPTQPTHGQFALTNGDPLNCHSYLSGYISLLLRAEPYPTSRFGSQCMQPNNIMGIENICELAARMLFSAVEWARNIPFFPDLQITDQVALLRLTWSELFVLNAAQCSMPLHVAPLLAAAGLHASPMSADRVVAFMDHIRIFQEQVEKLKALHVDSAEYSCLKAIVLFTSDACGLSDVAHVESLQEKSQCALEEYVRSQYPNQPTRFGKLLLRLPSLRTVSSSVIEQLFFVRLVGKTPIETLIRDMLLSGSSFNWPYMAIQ

T2: COUP-TFI (Nr2f1) (Mus musculus, UniProt Q60632 1-422)
T2 sequence: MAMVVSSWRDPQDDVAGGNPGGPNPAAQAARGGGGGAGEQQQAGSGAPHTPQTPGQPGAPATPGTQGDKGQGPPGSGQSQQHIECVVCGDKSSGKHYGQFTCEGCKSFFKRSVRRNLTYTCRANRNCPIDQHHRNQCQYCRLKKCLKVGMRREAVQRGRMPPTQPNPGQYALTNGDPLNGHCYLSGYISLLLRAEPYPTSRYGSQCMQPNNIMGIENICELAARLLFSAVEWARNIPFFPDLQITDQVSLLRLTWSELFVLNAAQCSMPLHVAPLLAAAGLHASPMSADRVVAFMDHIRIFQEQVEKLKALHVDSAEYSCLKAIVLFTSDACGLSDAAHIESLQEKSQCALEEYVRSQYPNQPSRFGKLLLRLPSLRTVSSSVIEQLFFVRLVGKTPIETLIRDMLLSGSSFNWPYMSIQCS


Tests used:
[1] = target: tESR1 (estrogen receptor alpha DNA-binding domain) (Homo sapiens, UniProt P03372 185-250); test: EMSA
COUP-TFII (Nr2f2) = target: T1, COUP-TFII (Nr2f2); test: EMSA
COUP-TFI (Nr2f1) [2] = target: T2, COUP-TFI (Nr2f1); test: EMSA
COUP-TFI (Nr2f1) [3] = target: T2, COUP-TFI (Nr2f1); test: competition
COUP-TFI (Nr2f1) [4] = target: T2, COUP-TFI (Nr2f1); test: competition; remark: listed apart in the source

Sequence of tESR1 (estrogen receptor alpha DNA-binding domain) (P03372 185-250): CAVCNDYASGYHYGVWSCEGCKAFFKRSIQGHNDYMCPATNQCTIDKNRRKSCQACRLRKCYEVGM

Row | Binder | binding result [1] | binding result (COUP-TFII (Nr2f2)) | binding result (COUP-TFI (Nr2f1) [2]) | binding result (COUP-TFI (Nr2f1) [3]) | binding result (COUP-TFI (Nr2f1) [4])
1 | probe A (nPE2 NRBE) (dsDNA) DNA 1: ATCCAAAGGTCAATTGAAATCTCTTT DNA 2: AAAGAGATTTCAATTGACCTTTGGAT | binds | binds | binds | – | –
2 | probe A* (mutated NRBE) (dsDNA) DNA 1: ATCCAAGCTCGAATTGAAATCTCTTT DNA 2: AAAGAGATTTCAATTCGAGCTTGGAT | no binding | – | no binding | – | –
3 | cold probe A (dsDNA) DNA 1: ATCCAAAGGTCAATTGAAATCTCTTT DNA 2: AAAGAGATTTCAATTGACCTTTGGAT | – | – | – | binds | –
4 | cold probe A* (dsDNA) DNA 1: ATCCAAGCTCGAATTGAAATCTCTTT DNA 2: AAAGAGATTTCAATTCGAGCTTGGAT | – | – | – | – | no binding
